PMC6953194

Experiments:
Assay in all cases: SPR
[1] = molecular target: VRC01 co‐expressed with human β1,4‐galactosyltransferase in the ΔXT/FT plant line (VRC01Gal) (human)
[2] = molecular target: VRC01 expressed in the ΔXT/FT N. benthamiana plant line (VRC01ΔXF) (human)
[3] = molecular target: VRC01 antibody derived from HEK cells (VRC01HEK) (human)
[4] = molecular target: VRC01 expressed transiently in WT N. benthamiana (VRC01WT) (human)
VRC01 expressed transiently in WT N. benthamiana (VRC01WT) (human), sequence (light, as listed by the source, chain 2 of 2, other chains not shown): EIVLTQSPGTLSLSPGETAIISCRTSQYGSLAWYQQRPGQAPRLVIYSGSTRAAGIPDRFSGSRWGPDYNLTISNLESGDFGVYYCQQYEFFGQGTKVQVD

VRC01 antibody derived from HEK cells (VRC01HEK) (human), sequence (light, as listed by the source, chain 2 of 2, other chains not shown): as above
VRC01 expressed in the ΔXT/FT N. benthamiana plant line (VRC01ΔXF) (human), sequence (light, as listed by the source, chain 2 of 2, other chains not shown): as above
VRC01 co‐expressed with human β1,4‐galactosyltransferase in the ΔXT/FT plant line (VRC01Gal) (human), sequence (light, as listed by the source, chain 2 of 2, other chains not shown): as above

Kd [1]: 1500 nM | Kd [2]: 780 nM | Kd [3]: 937 nM | Kd [4]: > 7000 nM
B1: recombinant human FcγRIIa ectodomain, polymorphic variant R131 (receptor)
chain: QAAAPPKAVLKLEPPWINVLQEDSVTLTCQGARSPESDSIQWFHNGNLIPTHTQPSYRFKANNNDSGEYTCQTGQTSLSDPVHLTVLSEWLVLQTPHLEFQEGETIMLRCHSWKDKPLVKVTFFQNGKSQKFSRLDPTFSIPQANHSHSGDYHCTGNIGYTLFSSKPVTITVQVPSMGSSSPMG
modifications: not checked
